According to patent US20250171562A1 (ALK ABELL, published 2025):

B1: CIgG4D2A1(RS) (Fc fusion)
chain 1: GPPCPPCPAPEFLGGPSVFLFPPKPKDTLMISRTPEVTCVVVDVSQEDPEVQFNWYVDGVEVHNAKTKPREEQFNSTYRVVSVLTVLHQDWLNGKEYKCKVSNKGLPSSIEKTISKAKGQPREPQVYTLPPCQEEMTKNQVSLWCLVKGFYPSDIAVEWESNGQPENNYKTTPPVLDSDGSFFLYSRLTVDKSRWQEGNVFSCSVMHEALHNHYTQKSLSLSLGKRSDVQLQESGGGLVEAGGSLRLSCVASGRTFSGWSMGWFRQAPGKEREFVAAISWVGSWIGGTVYSNSVKGRFTISRDNARTTVYLQMNSLKPEDTAVYFCAAANSETPRIFASEYDYWGQGTQVTVS
chain 2: GPPCPPCPAPEFLGGPSVFLFPPKPKDTLMISRTPEVTCVVVDVSQEDPEVQFNWYVDGVEVHNAKTKPREEQFNSTYRVVSVLTVLHQDWLNGKEYKCKVSNKGLPSSIEKTISKAKGQPREPQVCTLPPSQEEMTKNQVSLSCAVKGFYPSDIAVEWESNGQPENNYKTTPPVLDSDGSFFLVSRLTVDKSRWQEGNVFSCSVMHEALHNHYTQKSLSLSLGKRSEVQLLESGGGLVQPGGSLRLSCAASGFTFGNYDMAWVRQAPGKRPEWVSSIDTGGDITHYADSVKGRFTISRDNAKNTLYLQMNSLRPEDTAVYWCATDEEYALGPNEFDYYGQGTLVTVSS
B2: CIgG4D2A1(G4S)1 (Fc fusion)
chain 1: GPPCPPCPAPEFLGGPSVFLFPPKPKDTLMISRTPEVTCVVVDVSQEDPEVQFNWYVDGVEVHNAKTKPREEQFNSTYRVVSVLTVLHQDWLNGKEYKCKVSNKGLPSSIEKTISKAKGQPREPQVYTLPPCQEEMTKNQVSLWCLVKGFYPSDIAVEWESNGQPENNYKTTPPVLDSDGSFFLYSRLTVDKSRWQEGNVFSCSVMHEALHNHYTQKSLSLSLGKGGGGSDVQLQESGGGLVEAGGSLRLSCVASGRTFSGWSMGWFRQAPGKEREFVAAISWVGSWIGGTVYSNSVKGRFTISRDNARTTVYLQMNSLKPEDTAVYFCAAANSETPRIFASEYDYWGQGTQVTVS
chain 2: GPPCPPCPAPEFLGGPSVFLFPPKPKDTLMISRTPEVTCVVVDVSQEDPEVQFNWYVDGVEVHNAKTKPREEQFNSTYRVVSVLTVLHQDWLNGKEYKCKVSNKGLPSSIEKTISKAKGQPREPQVCTLPPSQEEMTKNQVSLSCAVKGFYPSDIAVEWESNGQPENNYKTTPPVLDSDGSFFLVSRLTVDKSRWQEGNVFSCSVMHEALHNHYTQKSLSLSLGKGGGGSEVQLLESGGGLVQPGGSLRLSCAASGFTFGNYDMAWVRQAPGKRPEWVSSIDTGGDITHYADSVKGRFTISRDNAKNTLYLQMNSLRPEDTAVYWCATDEEYALGPNEFDYYGQGTLVTVSS
B3: CIgG4D2A1(G4S)2 (Fc fusion)
chain 1: GPPCPPCPAPEFLGGPSVFLFPPKPKDTLMISRTPEVTCVVVDVSQEDPEVQFNWYVDGVEVHNAKTKPREEQFNSTYRVVSVLTVLHQDWLNGKEYKCKVSNKGLPSSIEKTISKAKGQPREPQVYTLPPCQEEMTKNQVSLWCLVKGFYPSDIAVEWESNGQPENNYKTTPPVLDSDGSFFLYSRLTVDKSRWQEGNVFSCSVMHEALHNHYTQKSLSLSLGKGGGGSGGGGSDVQLQESGGGLVEAGGSLRLSCVASGRTFSGWSMGWFRQAPGKEREFVAAISWVGSWIGGTVYSNSVKGRFTISRDNARTTVYLQMNSLKPEDTAVYFCAAANSETPRIFASEYDYWGQGTQVTVS
chain 2: GPPCPPCPAPEFLGGPSVFLFPPKPKDTLMISRTPEVTCVVVDVSQEDPEVQFNWYVDGVEVHNAKTKPREEQFNSTYRVVSVLTVLHQDWLNGKEYKCKVSNKGLPSSIEKTISKAKGQPREPQVCTLPPSQEEMTKNQVSLSCAVKGFYPSDIAVEWESNGQPENNYKTTPPVLDSDGSFFLVSRLTVDKSRWQEGNVFSCSVMHEALHNHYTQKSLSLSLGKGGGGSGGGGSEVQLLESGGGLVQPGGSLRLSCAASGFTFGNYDMAWVRQAPGKRPEWVSSIDTGGDITHYADSVKGRFTISRDNAKNTLYLQMNSLRPEDTAVYWCATDEEYALGPNEFDYYGQGTLVTVSS

Biological target: T1, recombinant human IgE (human, UniProt P01854-1 1-428)
T1 construct: made in-house (ALK); preloaded on immobilised FcεRIα in the displacement ELISA
Assay: IgE-FcεRIα displacement ELISA
Method in brief: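 Streptavidin-coated plates carried site-specifically biotinylated recombinant human FcεRIα, loaded with recombinant human IgE at 13 ng/ml. sdAbs in a pM–μM series were added for 1 h, and displaced IgE was washed off. Percent displacement was the signal reduction versus the no-sdAb control, giving EC50 and maximal effect.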

T1 sequence (P01854 other isoform, or with tags, fused parts or gaps): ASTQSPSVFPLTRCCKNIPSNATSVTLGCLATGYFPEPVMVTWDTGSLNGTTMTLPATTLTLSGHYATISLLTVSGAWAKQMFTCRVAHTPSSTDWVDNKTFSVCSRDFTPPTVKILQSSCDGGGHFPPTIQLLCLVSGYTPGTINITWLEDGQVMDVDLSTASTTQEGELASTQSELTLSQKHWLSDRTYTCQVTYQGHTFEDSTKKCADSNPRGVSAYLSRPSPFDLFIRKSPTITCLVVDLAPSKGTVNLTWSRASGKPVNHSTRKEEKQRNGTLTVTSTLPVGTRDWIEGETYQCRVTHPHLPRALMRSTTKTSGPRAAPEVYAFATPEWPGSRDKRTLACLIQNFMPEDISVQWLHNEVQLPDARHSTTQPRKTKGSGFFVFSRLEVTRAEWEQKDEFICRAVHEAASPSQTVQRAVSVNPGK

| Binder | Max effect [%] | EC50 [nM] |
| --- | --- | --- |
| B1 | 35 | – |
| B2 | > 95 | 25 |
| B3 | > 95 | 7 |
